Assay results from publication PMC12197737.
Values joined by “and” are separate entries in the source; they are usually repeats but may differ in a detail not shown here. Equal entries are not always repeated.

Biological target: recombinant TSWV-N protein (tomato spotted wilt virus nucleocapsid N protein) (Tomato spotted wilt virus (TSWV))
Test: cross-linking

For “recombinant TSWV-N protein (tomato spotted wilt virus nucleocapsid N protein) (natural protein)”, the stoichiometry N was 2 and 3.
